Laboratory results published in US6413935.
Non-standard residues stand in square brackets, D forms with d. No end group written: not given here. Cha = N[C@@H](CC1CCCCC1)C(=O)O; 14 = not defined here

Columns and labels:
[1] = biological target: T1, HLA-DR3 (DRB1*0301), purified from cell line MAT (human); assay: competition vs 125I-peptide, purified class II MHC
T1 chain 1: not shown
T1 chain 2: not shown

[2] = biological target: T2, HLA-DR5 (DRB1*11011), purified from cell line SWEIG (human); assay: competition vs 125I-peptide, purified class II MHC
T2 chain 1: not shown
T2 chain 2: not shown

[3] = biological target: T3, HLA-DR7 (DRB1*0701), purified from cell line PITOUT (human); assay: competition vs 125I-peptide, purified class II MHC
T3 chain 1: not shown
T3 chain 2: not shown

[4] = biological target: T4, HLA-DR2w2a (DRB5*0101), purified from transfected fibroblasts L416.3 (human); assay: competition vs 125I-peptide, purified class II MHC
T4 chain 1: not shown
T4 chain 2: not shown

[5] = biological target: T5, HLA-DR4w4 (DRB1*0401), purified from cell line PREISS (human); assay: competition vs 125I-peptide, purified class II MHC
T5 chain 1: not shown
T5 chain 2: not shown

[6] = biological target: T6, mouse class II IA^b, purified from DB27.4 cells (mouse), P14434; assay: 125I-peptide inhibition, purified class II
T6 chain 1: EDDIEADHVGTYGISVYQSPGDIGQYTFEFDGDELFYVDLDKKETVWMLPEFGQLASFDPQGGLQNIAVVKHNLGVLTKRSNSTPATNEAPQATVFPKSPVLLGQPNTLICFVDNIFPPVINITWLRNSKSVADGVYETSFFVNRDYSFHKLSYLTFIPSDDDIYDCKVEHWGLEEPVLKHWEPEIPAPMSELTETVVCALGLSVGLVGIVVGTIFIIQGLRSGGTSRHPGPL
T6 chain 2: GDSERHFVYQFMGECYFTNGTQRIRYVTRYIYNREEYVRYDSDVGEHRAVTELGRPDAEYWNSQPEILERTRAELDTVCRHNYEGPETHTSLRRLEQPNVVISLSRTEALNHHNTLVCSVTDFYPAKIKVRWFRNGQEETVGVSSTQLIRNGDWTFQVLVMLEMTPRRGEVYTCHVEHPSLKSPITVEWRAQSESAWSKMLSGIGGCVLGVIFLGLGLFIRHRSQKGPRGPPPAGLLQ

[7] = biological target: T7, mouse class II IA^d, purified from A20 cells (mouse), P04228; assay: 125I-peptide inhibition, purified class II
T7 chain 1: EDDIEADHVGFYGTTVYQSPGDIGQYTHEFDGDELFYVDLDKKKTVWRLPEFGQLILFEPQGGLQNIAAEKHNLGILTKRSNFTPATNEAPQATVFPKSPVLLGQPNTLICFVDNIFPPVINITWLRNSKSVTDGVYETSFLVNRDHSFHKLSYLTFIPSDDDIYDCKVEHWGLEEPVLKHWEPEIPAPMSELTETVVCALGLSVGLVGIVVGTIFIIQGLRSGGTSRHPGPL
T7 chain 2: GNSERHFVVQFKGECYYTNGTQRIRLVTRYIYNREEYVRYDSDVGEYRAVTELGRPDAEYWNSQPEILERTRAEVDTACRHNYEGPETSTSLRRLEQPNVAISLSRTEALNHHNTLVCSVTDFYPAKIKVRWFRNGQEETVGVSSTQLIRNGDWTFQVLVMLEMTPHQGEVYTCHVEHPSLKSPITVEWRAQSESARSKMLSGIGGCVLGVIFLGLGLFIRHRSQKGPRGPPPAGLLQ

[8] = biological target: T8, mouse class II IA^k, purified from CH12 cells (mouse), P01910; assay: 125I-peptide inhibition, purified class II
T8 chain 1: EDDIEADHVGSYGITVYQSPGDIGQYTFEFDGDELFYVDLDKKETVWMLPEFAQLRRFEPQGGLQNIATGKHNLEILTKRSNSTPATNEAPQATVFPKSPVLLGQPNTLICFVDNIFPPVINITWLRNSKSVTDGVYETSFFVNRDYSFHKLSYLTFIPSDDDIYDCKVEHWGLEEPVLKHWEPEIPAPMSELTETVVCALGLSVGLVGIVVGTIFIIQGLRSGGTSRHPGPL
T8 chain 2: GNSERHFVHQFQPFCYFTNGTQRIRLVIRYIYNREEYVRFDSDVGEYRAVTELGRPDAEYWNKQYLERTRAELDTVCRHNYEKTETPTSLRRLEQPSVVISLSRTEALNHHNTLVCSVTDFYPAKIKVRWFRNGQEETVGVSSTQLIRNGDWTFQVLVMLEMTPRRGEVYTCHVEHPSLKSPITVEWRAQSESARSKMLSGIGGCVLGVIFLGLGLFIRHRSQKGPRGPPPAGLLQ

[9] = biological target: mouse class II IE^d, purified from A20 cells (mouse); assay: 125I-peptide inhibition, purified class II
[10] = biological target: mouse class II IE^d, purified from A20 cells (mouse); assay: assay standard, average IC50
[11] = biological target: HLA-DR1 (DRB1*0101), purified from LG2 cells (human); assay: 125I-peptide inhibition, purified class II
[12] = biological target: T9, HLA-DR2w2a (DRB5*0101), purified from L416.3 transfected fibroblasts (human); assay: 125I-peptide inhibition, purified class II
T9 chain 1: not shown
T9 chain 2: not shown

[13] = biological target: T10, HLA-DR3 (DRB1*0301), purified from MAT cells (human); assay: 125I-peptide inhibition, purified class II
T10 chain 1: not shown
T10 chain 2: not shown

[14] = biological target: T11, HLA-DR5 (DRB1*11011), purified from SWEIG cells (human); assay: 125I-peptide inhibition, purified class II
T11 chain 1: not shown
T11 chain 2: not shown

[15] = biological target: T12, HLA-DR7 (DRB1*0701), purified from PITOUT cells (human); assay: 125I-peptide inhibition, purified class II
T12 chain 1: not shown
T12 chain 2: not shown

[16] = biological target: T13, HLA-DRw53 (DRB4*0101), purified from L257.6 transfected fibroblasts (human); assay: 125I-peptide inhibition, purified class II
T13 chain 1: not shown
T13 chain 2: not shown

[17] = biological target: mouse class II IA^s, purified from LS102.9 cells (mouse); assay: 125I-peptide inhibition, purified class II
[18] = biological target: mouse class II IE^k, purified from CH12 cells (mouse); assay: 125I-peptide inhibition, purified class II
[19] = biological target: T14, HLA-DR2w2b (DRB1*1501), purified from 3107 cells (human); assay: 125I-peptide inhibition, purified class II
T14 chain 1: not shown
T14 chain 2: not shown

[20] = biological target: T15, HLA-DR4w4 (DRB1*0401), purified from PREISS cells (human); assay: 125I-peptide inhibition, purified class II
T15 chain 1: not shown
T15 chain 2: not shown

[21] = biological target: T16, HLA-DR52a (DRB3*0101), purified from MAT cells or TR81.19 transfected fibroblasts (human); assay: 125I-peptide inhibition, purified class II
T16 chain 1: not shown
T16 chain 2: not shown

[22] = biological target: T8, mouse class II IA^k, purified from CH12 …; assay: assay standard, average IC50
[23] = biological target: T7, mouse class II IA^d, purified from A20 …; assay: assay standard, average IC50

B1: peptide 965.021, aK(14)…a-NH2 (peptide)
peptide: [dA]K[14]VKAWTLKAA[dA]-NH2
modifications: reading uncertain; also: printed as aK(14)VKAWTLKAAa-NH2
Which IC50 [1] does the source give for B1 here?
The IC50 was 1100 nM.

What about the IC50 [2] of the same binder?
The IC50 was 4.1 nM.

What about the IC50 [3] of the same binder?
The IC50 was 89.3 nM.

B2: peptide 955.15 (as printed), aK(14)…a-NH2 (peptide)
peptide: [dA]K[14]VAAHTLKAA[dA]-NH2
modifications: reading uncertain; also: printed as aK(14)VAAHTLKAAa-NH2
B2 was tested. Which IC50 [4] did it give?
Its IC50 is 5.4 nM.

What about the IC50 [1] of the same binder?
The IC50 was 2500 nM.

And the IC50 [5]?
The IC50 was 3.2 nM.

What about the IC50 [2] of the same binder?
The IC50 was 29.9 nM.

B3: lambda rep 12-26 (peptide)
peptide: YLEDARRLKAIYEKKK
modifications: not checked
Which IC50 [6] does the source give for B3 here?
Its IC50 is > 10000 nM.

And the IC50 [7]?
Its IC50 is 1100 nM.

And the IC50 [8]?
Its IC50 is > 10000 nM.

What about the IC50 [9] of the same binder?
The IC50 was 170 nM.

What about the IC50 [10] of the same binder?
The IC50 was 170 nM.

B4: 906.11 (peptide)
peptide: [dA]A[Cha]IAAATLKAA[dA]
Which results are given for B4?
IC50 [11]: 0.38 nM; IC50 [12]: 1.3 nM; IC50 [13]: 100 nM; IC50 [14]: 2.4 nM; IC50 [15]: 31 nM; IC50 [16]: 41 nM; IC50 [17]: 98 nM; IC50 [9]: 13 nM; IC50 [18]: 14 nM

B5: 906.09 (peptide)
peptide: [dA]A[Cha]VAAATLKAA[dA]
What does the source list for B5?
IC50 [11]: 0.61 nM; IC50 [12]: 2 nM; IC50 [19]: 14 nM; IC50 [13]: 280 nM; IC50 [20]: 2.6 nM; IC50 [21]: 588 nM; IC50 [15]: 76 nM; IC50 [16]: 93 nM; IC50 [6]: 31 nM; IC50 [7]: 38 nM; IC50 [9]: 31 nM; IC50 [18]: 11 nM

B6: HEL 46-61 (assay standard, with N-terminal Y) (peptide)
chain: YNTDGSTDYGILQINSR
modifications: not checked
With B6 as the binder, how does the IC50 [22] read?
Its IC50 is 20 nM.

B7: Ova 323-336 (peptide)
peptide: ISQAVHAAHAEINE
modifications: not checked
How did the IC50 [7] turn out when B7 was run?
The IC50 was 110 nM.

And the IC50 [8]?
Its IC50 is 1000 nM.

And the IC50 [18]?
The IC50 was 700 nM.

And the IC50 [23]?
Its IC50 is 110 nM.
